Key:
[1] = rat, in vivo
Description: (§1) Male Sprague-Dawley rats (24-weeks-old) (460-500 g) were obtained from Bio Lab (St. Paul) and were used to determine the PS and Vp measurements. All animals were kept for a minimum of 3 days under standard housing conditions and feeding schedules prior to the experiments.
Briefly, a bolus of PBS containing ^125 I labelled carrier molecule was injected rapidly into the catheterized brachial vein of pentobarbital anesthetized rats. Blood was sampled during the next 30, 60, or 240 minutes from the brachial artery, depending on the carrier molecule being evaluated. […]
After the final blood sample was collected, the sciatic nerves were rapidly removed and desheathed. […] The tissue was then lyophilized, and the dry weight was determined with a microbalance. These weights were then converted to their respective wet weights with wet weight/dry weight ratios previously determined for desheathed rat sciatic nerve and for the different brain regions. Tissue and plasma samples were assayed for ^125 I and ^131 I radioactivity in a 2-channel gamma counter. Radioactivity was corrected for crossover of ^131 I activity into the ^125 I channel and background activity. The Vp and PS measurements were calculated as described previously in Poduslo et al., Proc. Natl. Acad. Sci. U.S.A., 89, 2218 (1992). […]

[2] = rat; for Residual endoneurial plasma volume (Vp) of the blood nerve barrier / PS values across the blood nerve and blood brain barrier / Relative increase of PS vs ALB, blood nerve barrier / Relative increase of Vp vs ALB, blood nerve barrier: in vivo; for Permeability coefficient-surface area product (PS) of the blood nerve barrier: not told, iv
Description: as §1
Briefly, a bolus of PBS containing ^125 I labelled carrier molecule was injected rapidly into the catheterized brachial vein of pentobarbital anesthetized rats. Blood was sampled during the next 30, 60, or 240 minutes from the brachial artery, depending on the carrier molecule being evaluated. Prior to the sacrifice of the animal at time sequences of 60 or 120 seconds, the second isotope-labelled carrier molecule (^131 I) was administered intravenously to serve as the residual plasma volume indicator (Vp).
After the final blood sample was collected, the sciatic nerves were rapidly removed and desheathed. Similarly, the brain was removed followed by the meninges. The brain was dissected into the cortex, caudal putamen, hippocampus, thalamus, brain stem, and cerebellum. The tissue was then lyophilized, and the dry weight was determined with a microbalance. These weights were then converted to their respective wet weights with wet weight/dry weight ratios previously determined for desheathed rat sciatic nerve and for the different brain regions. Tissue and plasma samples were assayed for ^125 I and ^131 I radioactivity in a 2-channel gamma counter. Radioactivity was corrected for crossover of ^131 I activity into the ^125 I channel and background activity. The Vp and PS measurements were calculated as described previously in Poduslo et al., Proc. Natl. Acad. Sci. U.S.A., 89, 2218 (1992). […] Statistical evaluations were done using Student's two-tailed paired t-test. Significance was accepted at the p<0.05 level.

| Substance | PS values in the different brain regions [1] | Vp values in the different brain regions [1] | Residual endoneurial plasma volume (Vp) of the blood nerve barrier [2] | PS values across the blood nerve and blood brain barrier [2] | Relative increase of PS vs ALB, blood nerve barrier [2] | Relative increase of Vp vs ALB, blood nerve barrier [2] | Permeability coefficient-surface area product (PS) of the blood nerve barrier [2] |
| --- | --- | --- | --- | --- | --- | --- | --- |
| substance P [SP] | 27.68-36.53 ×10^-6 ml/g/s | 11.03 to 21.29 µL/g | 14.87 ± 3.53 µL/g |  |  |  |  |
| cytochrome c |  |  | 1.96 ± 0.32 µL/g | 1-10 ×10^-6 ml/g/sec | 73.6 | 1.0 | 7.43 ± 3.68 ml/g/sec × 10^6 |
| lysozyme |  |  | 2.57 ± 0.52 µL/g | 1-10 ×10^-6 ml/g/sec | 66.4 | 1.3 | 6.71 ± 1.65 ml/g/sec × 10^6 |
| hemoglobin |  |  | 1.91 ± 0.35 µL/g | 1-10 ×10^-6 ml/g/sec | 65.3 | 1.0 | 6.60 ± 1.33 ml/g/sec × 10^6 |
| ceruloplasmin |  |  | 1.98 ± 0.38 µL/g | 1-10 ×10^-6 ml/g/sec | 82.4 | 1.0 |  |
| ubiquitin |  |  | 1.84 ± 0.51 µL/g |  | 228.9 | 0.9 |  |
| calmodulin |  |  | 1.66 ± 0.32 µL/g |  | 211.3 | 0.9 | 21.34 ± 3.40 ml/g/sec × 10^6 |
